In data set [1] the target is T1, MORT-1 (Homo sapiens, UniProt Q13158, G32V).
T1 sequence (Q13158 with tags, fused parts or gaps G32V): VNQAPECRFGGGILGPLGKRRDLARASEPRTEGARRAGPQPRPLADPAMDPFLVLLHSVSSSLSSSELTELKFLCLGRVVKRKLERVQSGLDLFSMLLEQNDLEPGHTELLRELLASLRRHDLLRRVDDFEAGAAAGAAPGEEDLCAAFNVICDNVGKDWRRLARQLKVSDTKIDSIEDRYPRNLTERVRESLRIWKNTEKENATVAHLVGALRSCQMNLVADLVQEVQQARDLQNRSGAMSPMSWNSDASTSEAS
The data set is described as follows: Two-hybrid β-galactosidase expression filter assay in SFY526 yeast, DNA-binding domain hybrid MORT-1. On the set-up: the full-length MORT-1 cDNA was used (MORT 1); expressed in transfected cells; host or cells: SFY526 yeast. The note with it: substance as activation domain hybrid. An excerpt:
(§1) To isolate proteins interacting with the intracellular domain of the FAS-R, the yeast two-hybrid system was used (Fields and Song, 1989). […] In this system, the genes for the candidate interacting proteins are cloned into separate expression vectors. In one expression vector, the sequence of the one candidate protein is cloned in phase with the sequence of the GAL4 DNA-binding domain to generate a hybrid protein with the GAL4 DNA-binding-domain, and in the other vector, the sequence of the second candidate protein is cloned in phase with the sequence of the GAL4 activation domain to generate a hybrid protein with the GAL4-activation domain. The two hybrid vectors are then co-transformed into a yeast host strain having a lacZ or HIS3 reporter gene under the control of upstream GAL4 binding sites. Only those transformed host cells (cotransformants) in which the two hybrid proteins are expressed and are capable of interacting with each other, will be capable of expressing the reporter gene. […]
The yeast two-hybrid test was further applied to evaluate the specificity of binding of MACH to MORT-1, in particular, to define the region in MORT-1 to which MACH binds, as well as to determine which of the MACH ORFs interacts with MORT-1, the procedures being as set forth herein above in Examples 1 and 2. Briefly, various MORT-1 and MACH constructs were prepared for testing the interaction of the proteins encoded by the Gal4 DNA-binding domain and activation domain constructs within transfected SFY526 yeast cells as assessed by the β-galactosidase expression filter assay. […] In the assay, the development of color was determined, where the greater the color development, the greater the interaction between the constructs encoded by the DNA-binding domain and activation domain; Color development was depicted by symbols, where “+++” and “+” indicate the development of a strong color within 30 and 90 min. of the assay, respectively, and “−−−” indicates the lack of development of color within 24 hrs. of the assay. […]

The test system of data set [2] is HeLa cells. Nature of the data set: Ligand-independent cytocidal effect of MACH expression in HeLa cells, neutral red uptake. The data set is classed as cell-based, human. Particulars: 48 hrs. after transfection, FIG. 6. The method, then: In order to test this possibility, constructs encoding MACH were prepared with a tetracycline-controlled expression vector (for details see Example 1). These constructs were used to transfect HeLa cells in which the vectors were transiently expressed. Besides the MACH constructs, other control constructs were used to evaluate the effect of transient expression on the viability of the HeLa cells to which the effect of the MACH constructs could be compared. These other constructs included MORT-1, human FAS-IC and luciferase (Luc). In addition, co-transfection of the HeLa cells was also tested by using MORT-1 and MACH constructs to determine what effects the interaction between these proteins would cause. After transfection the HeLa cells were incubated and cell viability was evaluated 48 hrs. after transfection either in the presence or the absence of tetracycline (1 μg/ml) to block expression. Cell viability was determined by the neutral red uptake assay.
The results are shown in FIG. 6, which depicts graphically the ligand-independent triggering of cytocidal effects in cells transfected with MACH in comparison to cells transfected with constructs encoding the other proteins as well as cotransfected cells (MORT1+MACH). […]

Data set [3] is described as follows: Two-hybrid β-galactosidase expression filter assay in SFY526 yeast, empty pGBT9 vector. Particulars: negative control bait. The data set is classed as binding.
Text: as §1, with “sites.” for “sites. Only those transformed host cells (cotransformants) in which the two hybrid proteins are expressed and are capable of interacting with each other, will be capable of expressing the reporter gene.”
(§2) The yeast two-hybrid test was further applied to evaluate the specificity of binding of MACH to MORT-1, in particular, to define the region in MORT-1 to which MACH binds, as well as to determine which of the MACH ORFs interacts with MORT-1, the procedures being as set forth herein above in Examples 1 and 2. Briefly, various MORT-1 and MACH constructs were prepared for testing the interaction of the proteins encoded by the Gal4 DNA-binding domain and activation domain constructs within transfected SFY526 yeast cells as assessed by the β-galactosidase expression filter assay. […]

In data set [4] the target is T2, human p75 IC (Homo sapiens, UniProt P20333).
T2 construct: residues 287-461 of the intracellular domain of the human p75 TNF-R; expressed in transfected cells; host or cells: SFY526 yeast
T2 sequence (P20333 287-461): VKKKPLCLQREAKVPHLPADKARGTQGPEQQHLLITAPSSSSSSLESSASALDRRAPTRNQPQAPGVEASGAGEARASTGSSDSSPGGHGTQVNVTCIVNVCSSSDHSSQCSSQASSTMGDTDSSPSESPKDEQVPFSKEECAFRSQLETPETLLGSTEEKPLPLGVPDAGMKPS
Nature of the data set: Two-hybrid β-galactosidase expression filter assay in SFY526 yeast, DNA-binding domain hybrid human p75 IC. Particulars: specificity test.
Text: as §1, with “sites.” for “sites. Only those transformed host cells (cotransformants) in which the two hybrid proteins are expressed and are capable of interacting with each other, will be capable of expressing the reporter gene.”
as §2

Data set [5] concerns the target T3, human FAS DD (Homo sapiens, UniProt P25445).
T3 construct: the ‘death domain’ region of the intracellular domain of the human Fas-R (human Fas DD); expressed in transfected cells; host or cells: SFY526 yeast
T3 sequence (P25445 230-314 limits assumed): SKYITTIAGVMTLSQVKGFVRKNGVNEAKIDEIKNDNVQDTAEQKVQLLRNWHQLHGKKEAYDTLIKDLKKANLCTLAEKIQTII
Nature of the data set: Two-hybrid β-galactosidase expression filter assay in SFY526 yeast, DNA-binding domain hybrid human FAS DD. Particulars: specificity test.
Text: as §1, with “sites.” for “sites. Only those transformed host cells (cotransformants) in which the two hybrid proteins are expressed and are capable of interacting with each other, will be capable of expressing the reporter gene.”
as §2

Data set [6] has as its system Lamin. The data set is described as follows: Two-hybrid β-galactosidase expression filter assay in SFY526 yeast, DNA-binding domain hybrid Lamin. Particulars: specificity test.
Text: as §1, with “sites.” for “sites. Only those transformed host cells (cotransformants) in which the two hybrid proteins are expressed and are capable of interacting with each other, will be capable of expressing the reporter gene.”
as §2

Data set [7] concerns the target T4, human CD40 IC (Homo sapiens, UniProt P25942).
T4 construct: residues 216-277 of the intracellular domain of the human CD40; expressed in transfected cells; host or cells: SFY526 yeast
T4 sequence (P25942 216-277): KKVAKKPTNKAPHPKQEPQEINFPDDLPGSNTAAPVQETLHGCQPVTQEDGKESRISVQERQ
The data set is described as follows: Two-hybrid β-galactosidase expression filter assay in SFY526 yeast, DNA-binding domain hybrid human CD40 IC. The note with it: specificity test.
Text: as §1, with “sites.” for “sites. Only those transformed host cells (cotransformants) in which the two hybrid proteins are expressed and are capable of interacting with each other, will be capable of expressing the reporter gene.”
as §2

The target in data set [8] is T5, MORT1DD (130-245) (Homo sapiens, UniProt Q13158).
T5 construct: 130-245 MORT-1; expressed in transfected cells
T5 sequence (Q13158 82-197): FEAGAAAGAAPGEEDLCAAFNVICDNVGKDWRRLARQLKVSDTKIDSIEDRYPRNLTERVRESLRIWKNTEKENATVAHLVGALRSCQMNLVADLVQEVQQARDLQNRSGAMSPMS
Nature of the data set: Two-hybrid β-galactosidase expression filter assay in SFY526 yeast, DNA-binding domain hybrid MORT1DD (130-245).
Text: as §1, with “sites.” for “sites. Only those transformed host cells (cotransformants) in which the two hybrid proteins are expressed and are capable of interacting with each other, will be capable of expressing the reporter gene.”
as §2

B1: MACH: MORT-1 associated CED3 homolog; full-length MACH cDNA construct; protein later renamed MACHβ1 (protein)
chain: MDFSRNLYDIGEQLDSEDLASLKFLSLDYIPQRKQEPIKDALMLFQRLQEKRMLEESNLSFLKELLFRINRLDLLITYLNTRKEEMERELQTPGRAQISAYRVMLYQISEEVSRSELRSFKFLLQEEISKCKLDDDMNLLDIFIEMEKRVILGEGKLDILKRVCAQINKSLLKIINDYEEFSKERSSSLEGSPDEFSNDFGQSLPNEKQTSGILSDHQQSQFCKSTGESAQTSQH
B1: the “development of color (interaction with DNA-binding domain hybrid)” value in data set [1] was “+++ (“+++” and “+” indicate the development of a strong color within 30 and 90 min. of the assay, respectively)”; in data set [3], “−−− (“−−−” indicates the lack of development of color within 24 hrs. of the assay)”; in data set [4] it was “−−− (“−−−” indicates the lack of development of color within 24 hrs. of the assay)”; in data set [5] it was “−−− (“−−−” indicates the lack of development of color within 24 hrs. of the assay)”; in data set [6], “−−− (“−−−” indicates the lack of development of color within 24 hrs. of the assay)”; in data set [7] it was “−−− (“−−−” indicates the lack of development of color within 24 hrs. of the assay)”. Moreover, in data set [8], the “development of color (interaction with DNA-binding domain hybrid)” value was “−−− (“−−−” indicates the lack of development of color within 24 hrs. of the assay)”. In addition, the “cytotoxic effect of induced overexpression in HeLa cells” value in data set [2] was “dramatic cytotoxic effect”.

These data come from patent US7799901B2, “Modulators of the function of FAS receptors and other proteins” (Yeda Research and Development Co. Ltd., priority 1995, dated 2010).
